This passage reports Kd results from article PMC6890786, “Pseudomonas aeruginosa uses multiple receptors for adherence to laminin during infection of the respiratory tract and skin wounds” (Scientific Reports, 2019).

Holding throughout (experiment): BLI; OctetRed96; bacterial proteins immobilised on AR2G sensors by amino coupling; laminin-111 as analyte, 1.63 to 100 nM in PBS; 30 °C
The target in assay [1] is recombinant PA3923 of P. aeruginosa PAO1, 6xHis-tagged (P. aeruginosa PAO1) (UniProt Q9HX90).
For assay [2], the target named is recombinant OprG of P. aeruginosa PAO1, 6xHis-tagged (P. aeruginosa PAO1) (UniProt Q9HWW1).
The target of assay [3] is T1, Engelbreth-Holm-Swarm murine sarcoma laminin-111 (mouse, UniProt P19137 25-3083; P02469 22-1786; P02468 34-1607).
T1 construct: laminin alpha chain of laminin-111 (laminin subunit alpha-1), mouse; carries LG1-5 at its C-terminal end; laminin beta chain of laminin-111 (laminin subunit beta-1), mouse; laminin gamma chain of laminin-111 (laminin subunit gamma-1), mouse; Heterotrimer alpha/beta/gamma; Labelled with colloidal gold for the TEM experiment; also called L2020; source: bought: Sigma-Aldrich (L2020), …
To be noted: both partners purified.

Broadly, the Kd is the equilibrium constant for the complex coming apart. Regarding “Engelbreth-Holm-Swarm murine sarcoma laminin-111 (from UniProt P19137 25-3083; P02469 22-1786; P02468 34-1607) (complex)”, the equilibrium dissociation constant (Kd) was 6.9 nM in assay [1] and 4.7 nM in assay [2].

B1: recombinant EstA of P. aeruginosa PAO1, 6xHis-tagged (natural protein)
chain: APSPYSTLVVFGDSLSDAGQFPDPAGPAGSTSRFTNRVGPTYQNGSGEIFGPTAPMLLGNQLGIAPGDLAASTSPVNAQQGIADGNNWAVGGYRTDQIYDSITAANGSLIERDNTLLRSRDGYLVDRARQGLGADPNALYYITGGGNDFLQGRILNDVQAQQAAGRLVDSVQALQQAGARYIVVWLLPDLGLTPATFGGPLQPFASQLSGTFNAELTAQLSQAGANVIPLNIPLLLKEGMANPASFGLAADQNLIGTCFSGNGCTMNPTYGINGSTPDPSKLLFNDSVHPTITGQRLIADYTYSLLSAPWELTLLPEMAHGTLRAYQDELRSQWQADWENWQNVGQWRGFVGGGGQRLDFDSQDSAASGDGNGYNLTLGGSYRIDEAWRAGVAAGFYRQKLEAGAKDSDYRMNSYMASAFVQYQENRWWADAALTGGYLDYDDLKRKFALGGGERSEKGDTNGHLWAFSARLGYDIAQQADSPWHLSPFVSADYARVEVDGYSEKGASATALDYDDQKRSSKRLGAGLQGKYAFGSDTQLFAEYAHEREYEDDTQDLTMSLNSLPGNRFTLEGYTPQDHLNRVSLGFSQKLAPELSLRGGYNWRKGEDDTQQSVSLALSLDF
notes: EstA, autotransporter esterase of P. aeruginosa PAO1; open reading frame amplified from PAO1 genomic DNA and cloned into pET26(b)+; Labelled with 10 nm colloidal gold for TEM; source: E. coli BL21(DE3), purified (Ni-NTA)
On to B1, for which the affinity in assay [3], expressed as Kd, was 1.7 nM.

B2: recombinant Paf of P. aeruginosa, 6xHis-tagged (natural protein)
chain: EDGKRLRIGITLHPYYSYVSNIVGDKAEVVPLIPAGFNPHAYEPRAEDIKRIGTLDVVVLNGVGHDDFAERMIASSEKPGIPVIEANAKVPLLAATGMAARGAGKVVNPHTFLSISASITQVNTIARELGKLDPANAKAYTRNARAYAKRLRALRADALARLNKAPAADFRVATIHGAYDYLLREFGLEVTAVVEPAHGIEPSPSQLKKTIDQLKALDVKVIFSEIDFPSTYVETIQRESGVKLYSLSHISYGDYSAGKYEEEMARNLDTVVRAIQESGA
In assay [3], B2 gave a Kd of 2.8 nM.

B3: recombinant OprD of P. aeruginosa PAO1, 6xHis-tagged (natural protein)
chain: DAFVSDQAEAKGFIEDSSLDLLLRNYYFNRDGKSGSGDRVDWTQGFLTTYESGFTQGTVGFGVDAFGYLGLKLDGTSDKTGTGNLPVMNDGKPRDDYSRAGGAVKVRISKTMLKWGEMQPTAPVFAAGGSRLFPQTATGFQLQSSEFEGLDLEAGHFTEGKEPTTVKSRGELYATYAGETAKSADFIGGRYAITDNLSASLYGAELEDIYRQYYLNSNYTIPLASDQSLGFDFNIYRTNDEGKAKAGDISNTTWSLAAAYTLDAHTFTLAYQKVHGDQPFDYIGFGRNGSGAGGDSIFLANSVQYSDFNGPGEKSWQARYDLNLASYGVPGLTFMVRYINGKDIDGTKMSDNNVGYKNYGYGEDGKHHETNLEAKYVVQSGPAKDLSFRIRQAWHRANADQGEGDQNEFRLIVDYPLSIL
notes: OprD (porin D, OccD1) of P. aeruginosa PAO1; open reading frame amplified from PAO1 genomic DNA and cloned into pET26(b)+; Labelled with 10 nm colloidal gold for TEM; also called porin D; OccD1; source: E. coli BL21(DE3), purified (Ni-NTA)
In assay [3], B3 had a Kd of 22 nM.
